Source: article PMC11048322, “Weak Value Amplification-Based Biochip for Highly Sensitive Detection and Identification of Breast Cancer Exosomes”

How the values were obtained:
Conditions in all cases: protein: native; label: Au NP (about 58 nm) via thiol
[1] = target: T1, CD63 (on MDA-MB-231 exosomes) (UniProt P08962 2-238); experiment: weak value amplification optical biosensor; TEM; multivalent Au NP-aptamer on exosomes; Au NP-aptamer dispersed in ultrapure water, flowed over exosomes captured on Zr-ionized glass; pH and temperature not stated
T1 sequence (P08962 2-238): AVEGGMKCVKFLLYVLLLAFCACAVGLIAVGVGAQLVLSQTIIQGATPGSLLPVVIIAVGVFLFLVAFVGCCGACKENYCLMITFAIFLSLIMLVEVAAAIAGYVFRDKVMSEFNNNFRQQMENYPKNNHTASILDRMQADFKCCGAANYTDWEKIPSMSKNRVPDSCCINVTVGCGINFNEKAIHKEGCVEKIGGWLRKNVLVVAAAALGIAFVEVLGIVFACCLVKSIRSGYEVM

[2] = target: T1, CD63 (on MDA-MB-231 exosomes); experiment: weak value amplification optical biosensor; multivalent Au NP-aptamer on exosomes; no significant CW shift; Au NP-aptamer dispersed in ultrapure water, flowed over exosomes captured on Zr-ionized glass; pH and temperature not stated
[3] = target: T2, EpCAM (on MDA-MB-231 exosomes) (UniProt P16422 24-314); experiment: weak value amplification optical biosensor; multivalent Au NP-aptamer on exosomes; CW shift about 0.85 nm; Au NP-aptamer dispersed in ultrapure water, flowed over exosomes captured on Zr-ionized glass; pH and temperature not stated
T2 sequence: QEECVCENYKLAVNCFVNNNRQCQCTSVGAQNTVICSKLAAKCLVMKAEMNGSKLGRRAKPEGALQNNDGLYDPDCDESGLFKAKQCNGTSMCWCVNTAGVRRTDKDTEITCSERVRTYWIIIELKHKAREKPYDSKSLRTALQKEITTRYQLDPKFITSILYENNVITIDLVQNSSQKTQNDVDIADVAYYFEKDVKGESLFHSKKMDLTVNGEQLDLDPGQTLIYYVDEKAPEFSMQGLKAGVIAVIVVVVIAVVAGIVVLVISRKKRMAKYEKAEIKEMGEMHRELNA

CACCCCACCTCGCTCCCGTGACACTAATGCTA (ssDNA, 5'-SH C6) [CD63 aptamer]
binding result [1]: binds

ACTCTTCACCCGCACATTCGCATCGCCCAAGC (ssDNA, 5'-SH C6) [Scrambled CD63 (SCD63)]
binding result [2]: no binding

CACTACAGAGGTTGCGTCTGTCCCACGTTGTCATGGGGGGTTGGCCTG (ssDNA, 5'-SH C6) [EpCAM aptamer]
binding result [3]: binds
